Laboratory results from the Immune Epitope Database (IEDB).

Assays:
HLA-A*29:02 = assay: IEDB peptide-MHC binding, purified MHC/competitive/fluorescence; filed as Kd, often an IC50 or EC50 that approximates it; ≥ and ≤ were set here for values at or beyond the usual limits of such assays
HLA-A*01:01 = assay: as above
HLA-A*80:01 = assay: IEDB peptide-MHC binding, purified MHC/direct/fluorescence; filed as Kd, often an IC50 or EC50 that approximates it; ≥ and ≤ were set here for values at or beyond the usual limits of such assays
HLA-B*58:01 = assay: IEDB peptide-MHC binding, purified MHC/competitive/fluorescence; filed as Kd, often an IC50 or EC50 that approximates it; ≥ and ≤ were set here for values at or beyond the usual limits of such assays
HLA-B*15:02 = assay: as above
HLA-C*12:03 = assay: IEDB peptide-MHC binding, purified MHC/direct/fluorescence; filed as Kd, often an IC50 or EC50 that approximates it; ≥ and ≤ were set here for values at or beyond the usual limits of such assays
HLA-C*05:01 = assay: as above; settings: source organism: Listeria monocytogenes serotype 4b str. H7858
HLA-C*03:03 = assay: as above
HLA-A*02:12 = assay: IEDB peptide-MHC binding, purified MHC/competitive/fluorescence; filed as Kd, often an IC50 or EC50 that approximates it; ≥ and ≤ were set here for values at or beyond the usual limits of such assays
HLA-A*26:01 = assay: as above
HLA-B*15:17 = assay: as above
HLA-A*02:19 = assay: as above
HLA-A*68:02 = assay: as above
HLA-B*27:03 = assay: as above
HLA-B*18:01 = assay: as above
HLA-A*02:03 = assay: as above
HLA-A*03:01 = assay: as above
HLA-A*69:01 = assay: as above
HLA-B*15:01 [1] = assay: as above
HLA-A*02:16 = assay: as above
HLA-B*51:01 = assay: as above
HLA-B*39:01 = assay: as above
HLA-A*24:03 = assay: as above
HLA-B*46:01 = assay: as above
HLA-A*02:01 [2] = assay: as above
HLA-A*02:11 = assay: as above
HLA-A*23:01 = assay: as above
HLA-B*57:01 = assay: as above
HLA-A*31:01 = assay: as above; settings: source organism: Entamoeba histolytica HM-1:IMSS
HLA-B*07:02 [3] = assay: as above
HLA-C*15:02 = assay: IEDB peptide-MHC binding, purified MHC/direct/fluorescence; filed as Kd, often an IC50 or EC50 that approximates it; ≥ and ≤ were set here for values at or beyond the usual limits of such assays
HLA-C*07:02 = assay: as above
HLA-C*14:02 = assay: as above; settings: source organism: Homo sapiens
HLA-A*24:02 = assay: IEDB peptide-MHC binding, purified MHC/competitive/fluorescence; ≥ and ≤ were set here for values at or beyond the usual limits of such assays; settings: source organism: Zaire ebolavirus
HLA-B*15:01 [4] = assay: as above; settings: source organism: Zaire ebolavirus
HLA-B*08:01 [5] = assay: as above; settings: source organism: Zaire ebolavirus
HLA-B*07:02 [6] = assay: as above; settings: source organism: Zaire ebolavirus
HLA-A*02:01 [7] = assay: as above; settings: source organism: Zaire ebolavirus
HLA-B*08:01 [8] = assay: IEDB peptide-MHC binding, purified MHC/competitive/fluorescence; filed as Kd, often an IC50 or EC50 that approximates it; ≥ and ≤ were set here for values at or beyond the usual limits of such assays; settings: source organism: Yersinia pestis Nepal516
[9] = source organism: human gammaherpesvirus 4
[10] = source organism: Listeria monocytogenes serotype 4b str. H7858
[11] = source organism: Orthomarburgvirus marburgense
[12] = source organism: Entamoeba histolytica HM-1:IMSS
[13] = source organism: Vibrio cholerae V52
[14] = source organism: Salmonella enterica subsp. enterica serovar Typhi
[15] = source organism: Shigella flexneri 5 str. 8401
[16] = source organism: Escherichia coli O139:H28 str. E24377A
[17] = source organism: Yersinia pestis Nepal516
[18] = source organism: Escherichia coli E22

## AFFAERLYY
HLA-A*29:02; source organism: Mus musculus
  Kd: 0.0002 µM
HLA-A*01:01; source organism: Mus musculus
  Kd: ≥ 20000 nM
HLA-A*80:01; source organism: Mus musculus
  Kd: 19.5 nM

## ATVKGMQSY
HLA-B*58:01; [9]
  Kd: 4380 nM

## FLMYPNNIF
HLA-B*15:02; [10]
  Kd: 5.7 nM
HLA-C*12:03; [10]
  Kd: 178 nM
HLA-C*05:01
  Kd: 266 nM
HLA-C*03:03; [10]
  Kd: 15 nM

## GIADFIIFK
HLA-A*02:12; [11]
  Kd: ≥ 20 µM
HLA-A*26:01; [11]
  Kd: ≥ 20 µM
HLA-B*15:17; [11]
  Kd: ≥ 20 µM
HLA-A*02:19; [11]
  Kd: ≥ 20 µM
HLA-A*68:02; [11]
  Kd: ≥ 20 µM
HLA-B*27:03; [11]
  Kd: ≥ 20 µM
HLA-B*18:01; [11]
  Kd: ≥ 20 µM
HLA-A*02:03; [11]
  Kd: ≥ 20 µM
HLA-A*03:01; [11]
  Kd: 188 nM
HLA-A*69:01; [11]
  Kd: ≥ 20 µM
HLA-B*15:01 [1]; [11]
  Kd: ≥ 20 µM
HLA-A*02:16; [11]
  Kd: ≥ 20 µM
HLA-B*51:01; [11]
  Kd: ≥ 20 µM
HLA-B*39:01; [11]
  Kd: ≥ 20 µM
HLA-A*24:03; [11]
  Kd: ≥ 20 µM
HLA-B*46:01; [11]
  Kd: ≥ 20 µM
HLA-A*02:01 [2]; [11]
  Kd: ≥ 20000 nM
HLA-A*02:11; [11]
  Kd: ≥ 20 µM
HLA-A*29:02; [11]
  Kd: ≥ 20 µM
HLA-A*23:01; [11]
  Kd: ≥ 20 µM
HLA-B*57:01; [11]
  Kd: ≥ 20 µM

## HLWNHNQQM
HLA-B*15:02; source organism: Venezuelan equine encephalitis virus
  Kd: 49.9 nM

## IGKMNKHYK
HLA-A*31:01
  Kd: 160 nM
HLA-A*02:12; [12]
  Kd: ≥ 20 µM
HLA-A*26:01; [12]
  Kd: ≥ 20 µM
HLA-B*15:17; [12]
  Kd: ≥ 20 µM
HLA-A*02:19; [12]
  Kd: ≥ 20 µM
HLA-A*68:02; [12]
  Kd: ≥ 20 µM
HLA-B*27:03; [12]
  Kd: ≥ 20 µM
HLA-B*18:01; [12]
  Kd: ≥ 20 µM
HLA-A*02:03; [12]
  Kd: ≥ 20 µM
HLA-A*03:01; [12]
  Kd: ≥ 20000 nM
HLA-A*69:01; [12]
  Kd: ≥ 20 µM
HLA-B*15:01 [1]; [12]
  Kd: ≥ 20 µM
HLA-A*02:16; [12]
  Kd: ≥ 20 µM
HLA-B*51:01; [12]
  Kd: ≥ 20 µM
HLA-B*39:01; [12]
  Kd: ≥ 20 µM
HLA-A*24:03; [12]
  Kd: ≥ 20 µM
HLA-B*46:01; [12]
  Kd: ≥ 20 µM
HLA-A*02:01 [2]; [12]
  Kd: ≥ 20000 nM
HLA-A*02:11; [12]
  Kd: ≥ 20 µM
HLA-A*29:02; [12]
  Kd: ≥ 20 µM
HLA-B*57:01; [12]
  Kd: ≥ 20 µM

## IGYRLGMGK
HLA-A*02:12; [13]
  Kd: ≥ 20 µM
HLA-A*26:01; [13]
  Kd: ≥ 20 µM
HLA-B*15:17; [13]
  Kd: ≥ 20 µM
HLA-A*02:19; [13]
  Kd: ≥ 20 µM
HLA-A*68:02; [13]
  Kd: ≥ 20 µM
HLA-B*27:03; [13]
  Kd: ≥ 20 µM
HLA-B*18:01; [13]
  Kd: ≥ 20 µM
HLA-A*02:03; [13]
  Kd: ≥ 20 µM
HLA-A*03:01; [13]
  Kd: 13.5 nM
HLA-A*69:01; [13]
  Kd: ≥ 20 µM
HLA-B*15:01 [1]; [13]
  Kd: ≥ 20 µM
HLA-A*02:16; [13]
  Kd: ≥ 20 µM
HLA-B*51:01; [13]
  Kd: ≥ 20 µM
HLA-B*39:01; [13]
  Kd: ≥ 20 µM
HLA-A*24:03; [13]
  Kd: ≥ 20 µM
HLA-B*46:01; [13]
  Kd: ≥ 20 µM
HLA-A*02:01 [2]; [13]
  Kd: ≥ 20000 nM
HLA-A*02:11; [13]
  Kd: ≥ 20 µM
HLA-A*29:02; [13]
  Kd: ≥ 20 µM
HLA-A*23:01; [13]
  Kd: ≥ 20 µM
HLA-B*57:01; [13]
  Kd: ≥ 20 µM

## ILLARLFLY
HLA-A*03:01; [9]
  Kd: 2060 nM
HLA-A*80:01; [9]
  Kd: 3.3 nM

## ITLKVFAGY
HLA-A*26:01; [14]
  Kd: 0.287 µM
HLA-B*58:01; [14]
  Kd: 11.6 nM
HLA-A*03:01; [14]
  Kd: 2690 nM

## KVHLTPAQL
HLA-B*07:02 [3]; [15]
  Kd: 154 nM
HLA-C*15:02; [15]
  Kd: ≥ 20 µM

## LPRDASQIT
HLA-B*07:02 [3]; [16]
  Kd: 97.4 nM
HLA-B*51:01; [16]
  Kd: ≥ 20 µM

## MLYPRVWPY
HLA-A*29:02; source organism: Homo sapiens
  Kd: ≤ 0.0001 µM
HLA-A*01:01; source organism: Homo sapiens
  Kd: 1080 nM
HLA-C*07:02; source organism: Homo sapiens
  Kd: 238 nM
HLA-C*15:02; source organism: Homo sapiens
  Kd: ≥ 20 µM
HLA-C*14:02
  Kd: 246 nM

## MMQGTPYVY
HLA-B*15:02; source organism: Vibrio antiquarius
  Kd: 5.9 nM

## PVMNHKNKF
HLA-A*24:02
  IC50: 0.106 µM
HLA-B*15:01 [4]
  IC50: ≥ 364 µM
HLA-B*08:01 [5]
  IC50: 11 µM

## RTAKVKNEV
HLA-B*07:02 [6]
  IC50: 10.3 µM
HLA-A*24:02
  IC50: ≥ 75.3 µM
HLA-A*02:01 [7]
  IC50: 57.2 µM
HLA-B*08:01 [5]
  IC50: 56.8 µM

## SDMDYHKIL
HLA-A*24:02
  IC50: ≥ 145 µM
HLA-A*02:01 [7]
  IC50: ≥ 241 µM
HLA-B*08:01 [5]
  IC50: ≥ 177 µM

## SLFVRSAGQ
HLA-B*15:02; source organism: Burkholderia mallei JHU
  Kd: ≥ 20000 nM

## VVEKQSGLY
HLA-A*80:01; source organism: West Nile virus
  Kd: 0.8 nM

## YIYTRSFQM
HLA-A*26:01; [17]
  Kd: 0.593 µM
HLA-B*15:01 [1]; [17]
  Kd: 0.351 µM
HLA-A*02:01 [2]; [17]
  Kd: 0.4 nM
HLA-B*08:01 [8]
  Kd: 48.7 nM
HLA-C*07:02; [17]
  Kd: 163 nM

## YMNGTMSQV
HLA-C*15:02; source organism: Homo sapiens
  Kd: 0.372 µM
HLA-C*12:03; source organism: Homo sapiens
  Kd: 88 nM
HLA-C*03:03; source organism: Homo sapiens
  Kd: 371 nM

## YQTYVSPGA
HLA-A*02:12; [18]
  Kd: ≥ 20 µM
HLA-A*26:01; [18]
  Kd: ≥ 20 µM
HLA-B*15:17; [18]
  Kd: ≥ 20 µM
HLA-A*02:19; [18]
  Kd: ≥ 20 µM
HLA-B*27:03; [18]
  Kd: ≥ 20 µM
HLA-B*18:01; [18]
  Kd: ≥ 20 µM
HLA-A*03:01; [18]
  Kd: ≥ 20000 nM
HLA-A*69:01; [18]
  Kd: ≥ 20 µM
HLA-B*15:01 [1]; [18]
  Kd: ≥ 20 µM
HLA-A*02:16; [18]
  Kd: ≤ 0.0001 µM
HLA-B*51:01; [18]
  Kd: ≥ 20 µM
HLA-A*24:03; [18]
  Kd: ≥ 20 µM
HLA-B*46:01; [18]
  Kd: ≥ 20 µM
HLA-A*02:01 [2]; [18]
  Kd: 0.4 nM
HLA-A*02:11; [18]
  Kd: ≥ 20 µM
HLA-A*29:02; [18]
  Kd: ≥ 20 µM
HLA-A*23:01; [18]
  Kd: ≥ 20 µM
HLA-B*57:01; [18]
  Kd: ≥ 20 µM
